# What was measured:
# [1] = biological target: gH/gL/gO trimer of HCMV TB40-BAC4 (human cytomegalovirus, strain TB40/E (TB40-BAC4))
# PDGF-BB [2] = biological target: PDGF-BB (UniProt P01127)
# PDGF-BB [3] = biological target: PDGF-BB (UniProt P01127); remark: listed apart in the source
# [4] = biological target: gH/gL/gO trimer of HCMV TB40-BAC4 (human cytomegalovirus, strain TB40/E (TB40-BAC4)); remark: listed apart in the source
# [5] = biological target: gH/gL/gO trimer of HCMV TB40-BAC4 (human cytomegalovirus, strain TB40/E (TB40-BAC4)); remark: listed apart in the source
# Chain of PDGF-BB (P01127 82-190): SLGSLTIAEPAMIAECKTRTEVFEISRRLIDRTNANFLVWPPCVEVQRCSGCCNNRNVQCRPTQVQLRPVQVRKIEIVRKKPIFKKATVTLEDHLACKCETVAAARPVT
# Chain of PDGFRα-Fc delQ294-E298 (P16234 other isoform, or with tags, fused parts or gaps, stated change not applied): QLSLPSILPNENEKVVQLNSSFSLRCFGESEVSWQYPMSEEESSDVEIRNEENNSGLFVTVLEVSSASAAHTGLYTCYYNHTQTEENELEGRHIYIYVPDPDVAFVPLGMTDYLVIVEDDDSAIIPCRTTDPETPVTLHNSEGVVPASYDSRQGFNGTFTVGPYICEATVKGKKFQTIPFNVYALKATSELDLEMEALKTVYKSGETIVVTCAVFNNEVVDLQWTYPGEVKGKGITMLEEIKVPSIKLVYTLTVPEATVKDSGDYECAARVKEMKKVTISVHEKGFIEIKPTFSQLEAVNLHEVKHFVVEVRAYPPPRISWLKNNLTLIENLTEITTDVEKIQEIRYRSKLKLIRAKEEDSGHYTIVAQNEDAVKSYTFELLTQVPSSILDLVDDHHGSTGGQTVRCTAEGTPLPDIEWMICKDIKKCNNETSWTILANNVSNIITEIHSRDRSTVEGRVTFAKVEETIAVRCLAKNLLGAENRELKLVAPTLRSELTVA
# Chain of PDGFRα-Fc delM133-I139 (P16234 other isoform, or with tags, fused parts or gaps, stated change not applied): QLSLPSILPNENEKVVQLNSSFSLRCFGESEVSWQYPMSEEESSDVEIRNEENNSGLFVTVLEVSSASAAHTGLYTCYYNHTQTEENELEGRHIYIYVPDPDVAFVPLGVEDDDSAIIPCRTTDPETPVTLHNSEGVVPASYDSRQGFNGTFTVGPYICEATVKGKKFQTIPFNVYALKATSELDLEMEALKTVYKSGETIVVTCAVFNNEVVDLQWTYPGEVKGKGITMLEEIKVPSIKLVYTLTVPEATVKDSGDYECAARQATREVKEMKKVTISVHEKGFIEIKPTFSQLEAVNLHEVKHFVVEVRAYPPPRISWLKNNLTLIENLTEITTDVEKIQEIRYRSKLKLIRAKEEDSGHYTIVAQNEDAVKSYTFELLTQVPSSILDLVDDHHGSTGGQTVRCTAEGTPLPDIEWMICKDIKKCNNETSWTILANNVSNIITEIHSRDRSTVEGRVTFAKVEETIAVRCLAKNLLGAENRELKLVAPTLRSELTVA
# Chain of PDGFRα-Fc delN204-Y206 (P16234 other isoform, or with tags, fused parts or gaps, stated change not applied): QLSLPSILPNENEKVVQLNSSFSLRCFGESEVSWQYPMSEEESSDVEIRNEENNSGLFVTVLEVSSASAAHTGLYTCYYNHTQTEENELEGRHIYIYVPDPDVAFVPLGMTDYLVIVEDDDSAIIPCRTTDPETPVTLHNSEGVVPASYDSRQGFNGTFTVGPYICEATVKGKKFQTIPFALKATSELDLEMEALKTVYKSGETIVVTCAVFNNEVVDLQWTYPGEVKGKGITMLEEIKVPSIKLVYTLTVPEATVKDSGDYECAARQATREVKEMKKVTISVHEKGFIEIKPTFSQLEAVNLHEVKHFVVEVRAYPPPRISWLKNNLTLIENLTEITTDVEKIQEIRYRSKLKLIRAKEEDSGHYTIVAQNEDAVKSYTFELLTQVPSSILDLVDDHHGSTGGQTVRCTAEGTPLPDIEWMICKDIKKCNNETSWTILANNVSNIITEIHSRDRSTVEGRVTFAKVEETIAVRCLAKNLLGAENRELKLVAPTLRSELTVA
substance,measurement,setting,value
PDGFRα-Fc E298A (from UniProt P16234-1 24-528) (Fc fusion),"inhibition of HCMV TB40-BAC4-IE-GLuc infection of fibroblasts (Gaussia luciferase read-out), against wild type (fold increase of the inhibitory effect)",[1],3
PDGFRα-Fc I139A (from UniProt P16234-1 24-528) (Fc fusion),"reduction of p-Akt signal induced by 6 ng/ml PDGF-BB in fibroblasts, quantitative immunoblot, 4000 ng/ml PDGFRα-Fc",PDGF-BB [2],80%
same,"inhibition of HCMV TB40-BAC4-IE-GLuc infection of fibroblasts (Gaussia luciferase read-out), against wild type (fold decrease of the efficiency)",[1],4
same,"reduction of Akt phosphorylation induced by 50 ng/ml PDGF-BB in fibroblasts, phospho-Akt immunoblot, 4,000 ng/ml PDGFRα-Fc",PDGF-BB [3],20%
PDGFRα-Fc I139L (from UniProt P16234-1 24-528) (Fc fusion),"HCMV inhibition EC50 (TB40-BAC4-IE-GLuc, fibroblasts, immediate-early antigen staining)",[4],6.6 ng/mL
PDGFRα-Fc I139V (from UniProt P16234-1 24-528) (Fc fusion),"HCMV inhibition EC50 (TB40-BAC4-IE-GLuc, fibroblasts, immediate-early antigen staining)",[4],9.5 ng/mL
PDGFRα-Fc Q294A (from UniProt P16234-1 24-528) (Fc fusion),"inhibition of HCMV TB40-BAC4-IE-GLuc infection of fibroblasts (Gaussia luciferase read-out), against wild type (fold increase of the inhibitory effect)",[1],3
PDGFRα-Fc T296A (from UniProt P16234-1 24-528) (Fc fusion),"inhibition of HCMV TB40-BAC4-IE-GLuc infection of fibroblasts (Gaussia luciferase read-out), against wild type (fold increase of the inhibitory effect)",[1],3
PDGFRα-Fc Y206A (from UniProt P16234-1 24-528) (Fc fusion),"inhibition of HCMV TB40-BAC4-IE-GLuc infection of fibroblasts (Gaussia luciferase read-out), against wild type (fold decrease of the efficiency)",[1],4
same,"reduction of Akt phosphorylation induced by 50 ng/ml PDGF-BB in fibroblasts, phospho-Akt immunoblot, 4,000 ng/ml PDGFRα-Fc",PDGF-BB [3],60%
PDGFRα-Fc Y206F (from UniProt P16234-1 24-528) (Fc fusion),"HCMV inhibition EC50 (TB40-BAC4-IE-GLuc, fibroblasts, immediate-early antigen staining)",[4],5.9 ng/mL
PDGFRα-Fc delM133-I139 (from UniProt P16234-1 24-528) (Fc fusion),"inhibition of HCMV TB40-BAC4-IE-GLuc infection of fibroblasts (Gaussia luciferase read-out), 4,000 to 1 ng/ml; EC50 against wild type (fold higher EC50 than wild type)",[5],10
PDGFRα-Fc delN204-Y206 (from UniProt P16234-1 24-528) (Fc fusion),"inhibition of HCMV TB40-BAC4-IE-GLuc infection of fibroblasts (Gaussia luciferase read-out), 4,000 to 1 ng/ml; EC50 against wild type (fold higher EC50 than wild type)",[5],10
PDGFRα-Fc delQ294-E298 (from UniProt P16234-1 24-528) (Fc fusion),"inhibition of HCMV TB40-BAC4-IE-GLuc infection of fibroblasts (Gaussia luciferase read-out), 4,000 to 1 ng/ml; EC50 against wild type (fold higher EC50 than wild type)",[5],10

# Reference: article PMC8031885
